The values below come from paper PMC8102066, “Differences in interactions between transmembrane domains tune the activation of metabotropic glutamate receptors” (eLife, 2021).

For one test, the target named is SNAP-mGluR2-TMD-P778A. The test can be described thus: SiMPull. To be noted: SNAP-tagged constructs labeled with LD555; 6 movies; parent: est. 80; read off a plot.
For test [1], the target named is SNAP-mGluR2-TMD-P778A-I779A. The test can be described thus: SiMPull. To be noted: SNAP-tagged constructs labeled with LD555; 6 movies; parent: est. 80; read off a plot.
The next test addresses SNAP-mGluR3-TMD-G694A. The test can be described thus: SiMPull. To be noted: SNAP-tagged constructs labeled with LD555; 6 movies; parent: est. 46; read off a plot.
A further test concerns the target HA-SNAP-mGluR3-TMD (rat). The test can be described thus: single-molecule pulldown (SiMPull) with photobleaching step counting; HEK 293T cells surface-labelled with BG-LD555, lysed in 1.2% IGEPAL, diluted in 0.1% IGEPAL buffer; HA-SNAP constructs captured by biotinylated anti-HA antibody on NeutrAvidin/PEG slides; TIRF; percent dimerization = two-step bleaching min-max normalised (5% background, 55% for full-length mGluR2); in some experiments saturating ligands (TASP, MNI 137, glutamate, LY34) kept from cell dissociation on.

A further test concerns the target SNAP-mGluR3-TMD-S686A. The test can be described thus: SiMPull. As to conditions: SNAP-tagged constructs labeled with LD555; 6 movies; parent: est. 46; read off a plot.
The next test concerns the target SNAP-mGluR2-TMD-I779W. The test can be described thus: SiMPull. To be noted: SNAP-tagged constructs labeled with LD555; 6 movies; parent: est. 80; read off a plot.
The next test deals with HA-SNAP-mGluR2-TMD (rat). The test can be described thus: single-molecule pulldown (SiMPull) with photobleaching step counting; HEK 293T cells surface-labelled with BG-LD555, lysed in 1.2% IGEPAL, diluted in 0.1% IGEPAL buffer; HA-SNAP constructs captured by biotinylated anti-HA antibody on NeutrAvidin/PEG slides; TIRF; percent dimerization = two-step bleaching min-max normalised (5% background, 55% for full-length mGluR2); in some experiments saturating ligands (TASP, MNI 137, glutamate, LY34) kept from cell dissociation on.

The next test concerns the target SNAP-mGluR2-TMD-3xTM4_W. The test can be described thus: SiMPull. As to conditions: SNAP-tagged constructs labeled with LD555; 9 movies; parent: est. 83; read off a plot.
Another test concerns the target SNAP-mGluR3-TMD-3xTM4_W. The test can be described thus: SiMPull. As to conditions: SNAP-tagged constructs labeled with LD555; 6 movies; parent: est. 46; read off a plot.
The next test deals with SNAP-mGluR3-TMD-F690A. The test can be described thus: SiMPull. To be noted: SNAP-tagged constructs labeled with LD555; 6 movies; parent: est. 46; read off a plot.
The next test has as its target SNAP-mGluR3-TMD-I788A. The test can be described thus: SiMPull. As to conditions: SNAP-tagged constructs labeled with LD555; 6 movies; parent: est. 50; read off a plot.
The target of test [2] is SNAP-mGluR2-TMD-I779A. The test can be described thus: SiMPull. As to conditions: SNAP-tagged constructs labeled with LD555; 6 movies; parent: est. 80; read off a plot.
In test [3] the target is SNAP-mGluR2-TMD-I779A. The test can be described thus: SiMPull. As to conditions: SNAP-tagged constructs labeled with LD555; 6 movies; parent: est. 80; read off a plot. The source holds these as a separate data set.

HA-SNAP-mGluR3-TMD (domain or fragment), sequence (P31422 23-879): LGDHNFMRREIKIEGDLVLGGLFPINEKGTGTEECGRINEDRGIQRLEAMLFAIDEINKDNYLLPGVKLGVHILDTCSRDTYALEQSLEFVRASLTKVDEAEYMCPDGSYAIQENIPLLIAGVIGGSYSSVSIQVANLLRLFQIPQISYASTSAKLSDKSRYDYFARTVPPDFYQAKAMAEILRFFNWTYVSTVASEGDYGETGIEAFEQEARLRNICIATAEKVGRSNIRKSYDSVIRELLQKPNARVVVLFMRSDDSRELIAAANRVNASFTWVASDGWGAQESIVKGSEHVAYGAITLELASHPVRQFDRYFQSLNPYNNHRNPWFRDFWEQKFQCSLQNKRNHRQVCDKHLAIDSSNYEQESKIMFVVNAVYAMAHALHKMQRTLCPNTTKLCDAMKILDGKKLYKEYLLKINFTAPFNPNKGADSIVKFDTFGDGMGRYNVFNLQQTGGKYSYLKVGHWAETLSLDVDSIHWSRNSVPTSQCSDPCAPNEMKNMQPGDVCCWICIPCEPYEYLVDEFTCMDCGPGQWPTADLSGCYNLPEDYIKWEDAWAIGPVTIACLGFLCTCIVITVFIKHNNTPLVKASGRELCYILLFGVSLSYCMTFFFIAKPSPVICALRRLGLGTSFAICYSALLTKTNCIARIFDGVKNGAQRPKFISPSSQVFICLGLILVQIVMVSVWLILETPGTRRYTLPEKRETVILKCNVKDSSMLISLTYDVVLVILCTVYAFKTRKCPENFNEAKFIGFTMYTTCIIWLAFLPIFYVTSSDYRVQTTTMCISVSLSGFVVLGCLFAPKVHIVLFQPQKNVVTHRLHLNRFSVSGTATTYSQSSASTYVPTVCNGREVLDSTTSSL
HA-SNAP-mGluR2-TMD (domain or fragment), sequence (P31421 19-872): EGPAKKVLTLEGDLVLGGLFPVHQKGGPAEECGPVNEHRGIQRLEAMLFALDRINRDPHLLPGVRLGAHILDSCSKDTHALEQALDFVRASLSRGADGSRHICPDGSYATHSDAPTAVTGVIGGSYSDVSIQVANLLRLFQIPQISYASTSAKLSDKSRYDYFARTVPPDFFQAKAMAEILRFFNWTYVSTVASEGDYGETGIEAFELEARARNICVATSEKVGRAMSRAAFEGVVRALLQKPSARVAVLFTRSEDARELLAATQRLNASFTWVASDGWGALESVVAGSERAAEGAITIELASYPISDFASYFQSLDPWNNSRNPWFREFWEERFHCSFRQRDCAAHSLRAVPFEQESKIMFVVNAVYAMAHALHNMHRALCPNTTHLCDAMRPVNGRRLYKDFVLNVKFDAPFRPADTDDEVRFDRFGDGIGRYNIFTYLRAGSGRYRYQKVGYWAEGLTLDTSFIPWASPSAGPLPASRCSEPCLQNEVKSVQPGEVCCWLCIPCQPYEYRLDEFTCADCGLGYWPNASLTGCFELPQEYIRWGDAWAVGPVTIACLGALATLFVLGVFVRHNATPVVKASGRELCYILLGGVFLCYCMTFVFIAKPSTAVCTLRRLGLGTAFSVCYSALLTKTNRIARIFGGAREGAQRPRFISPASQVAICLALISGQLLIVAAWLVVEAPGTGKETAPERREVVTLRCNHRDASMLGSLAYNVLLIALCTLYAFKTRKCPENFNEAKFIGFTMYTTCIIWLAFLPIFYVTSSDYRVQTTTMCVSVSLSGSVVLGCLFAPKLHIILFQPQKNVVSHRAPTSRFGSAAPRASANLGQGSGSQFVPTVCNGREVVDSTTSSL

In the case of HA-SNAP-mGluR2-TMD P778A, in the test with SNAP-mGluR2-TMD-P778A, the other: percent dimerization amounted to 64%. On to HA-SNAP-mGluR2-TMD P778A; I779A, for which the other: percent dimerization in [1] was 57%. Turning to HA-SNAP-mGluR3-TMD G694A, the other: percent dimerization with SNAP-mGluR3-TMD-G694A was determined as 62%. In the test with HA-SNAP-mGluR3-TMD (rat), HA-SNAP-mGluR3-TMD (domain or fragment) came in with a percent of spots bleaching in >3 steps of 2.9%, a percent of spots bleaching in one step of 69.1% and a percent of spots bleaching in two steps of 27.9%. For HA-SNAP-mGluR3-TMD S686A, in the test with SNAP-mGluR3-TMD-S686A, the other: percent dimerization stood at 72%. On to HA-SNAP-mGluR2-TMD I779W, for which, in the test with SNAP-mGluR2-TMD-I779W, the other: percent dimerization is 61%.

With HA-SNAP-mGluR2-TMD (domain or fragment), in the test with HA-SNAP-mGluR2-TMD (rat), the percent of spots bleaching in >3 steps was 4.5%, the percent of spots bleaching in one step was 54.1% and the percent of spots bleaching in two steps stood at 41.4%.

For the substance HA-SNAP-mGluR2-TMD A677W; A681W; A685W, the other: percent dimerization with SNAP-mGluR2-TMD-3xTM4_W was determined as 39%.

For HA-SNAP-mGluR3-TMD S686W; F690W; G684W, in the test with SNAP-mGluR3-TMD-3xTM4_W, the other: percent dimerization amounted to 45%. With HA-SNAP-mGluR3-TMD F690A, the other: percent dimerization in the test with SNAP-mGluR3-TMD-F690A turned out to be 64%. Regarding HA-SNAP-mGluR3-TMD I788A, in the test with SNAP-mGluR3-TMD-I788A, the other: percent dimerization amounted to 38%. In the case of HA-SNAP-mGluR2-TMD I779A, the other: percent dimerization in the test with SNAP-mGluR2-TMD-I779A [2] and with SNAP-mGluR2-TMD-I779A [3] was 57% in each case.
